Values of other authors in patent US20120128767A1, “THERAPEUTIC CALCIUM PHOSPHATE PARTICLES AND METHODS OF MAKING AND USING SAME” (priority 2008, published 2012).
Like-named read-outs stand apart in the source and are kept apart here.

## insulin
Insulin added to preformed calcium phosphate particles
  absorption efficiency: about 40%
Insulin mixed during the particle formation
  absorption efficiency: about 89%
